# Results reported in patent US20100216161.
# Read-outs that look alike come from different tables or passages of the source.
# B1: NS3•4A protein with an N-terminal histidine tag (protein)
# chain: MSHHHHHHAMAPITAYAQQTRGLLGCIITSLTGRDKNQVEGEVQIVSTATQTFLATCINGVCWTVYHGAGTRTIASPKGPVIQMYTNVDQDLVGWPAPQGSRSLTPCTCGSSDLYLVTRHADVIPVRRRGDSRGSLLSPRPISYLKGSSGGPLLCPAGHAVGLFRAAVCTRGVTKAVDFIPVENLETTMRSPVFTDNSSPPAVPQSFQVAHLHAPTGSGKSTKVPAAYAAQGYKVLVLNPSVAATLGFGAYMSKAHGVDPNIRTGVRTITTGSPITYSTYGKFLADGGCSGGAYDIIICDECHSTDATSILGIGTVLDQAETAGARLVVLATATPPGSVTVSHPNIEEVALSTTGEIPFYGKAIPLEVIKGGRHLIFCHSKKKCDELAAKLVALGINAVAYYRGLDVSVIPTNGDVVVVSTDALMTGFTGDFDSVIDCNTCVTQTVDFSLDPTFTIETTTLPQDAVSRTQRRGRTGRGKPGIYRFVAPGERPSGMFDSSVLCECYDAGCAWYELMPAETTVRLRAYMNTPGLPVCQDHLEFWEGVFTGLTHIDAHFLSQTKQSGENFPYLVAYQATVCARAQAPPPSWDQMWKCLIRLKPTLHGPTPLLYRLGAVQNEVTLTHPITKYIMTCMSADLEVVTSTWVLVGGVLAALAAYCLSTGCVVIVGRIVLSGKPAIIPDREVLYQEFDEMEEC
# Assays:
# [1] = system: NS5AB peptide substrate NH2-EDVV-(alpha)Abu-CSMSY-COOH
# [2] = molecular target: T1, NS5AB-EDANS peptide substrate NH2-EDVV-(alpha)Abu-CSMSYT-Asp(EDANS)-KKK-COOH
# T1 chain: EDVVXCSMSYTDKKK
# [3] = molecular target: T2, NS5AB peptide substrate NH2-EDVV-(alpha)Abu-CSMSY-COOH
# T2 chain: EDVVXCSMSY
# [4] = molecular target: T3, FITC-NS5AB-1 peptide substrate FITC-Ahx-EDVV-(alpha)Abu-CSMSYTKK-NH2
# T3 chain: XEDVVXCSMSYTKK
Molecule,Km [1] [µM],kcat/Km [1] [M⁻¹ s⁻¹],Km [2] [µM],kcat/Km [2] [M⁻¹ s⁻¹],Km [3] [µM],kcat/Km [3] [M⁻¹ s⁻¹],Km [4] [µM],kcat/Km [4] [M⁻¹ s⁻¹]
"HCV NS3 protease domain (residues Ala1-Ser181 of HCV NS3 protease, C-terminal hexa-histidine tag)",25,30000,–,–,–,–,–,–
B1,–,–,56,1400,30,7900,15,1200
